System: C=C(OP(=O)(O)O)C(=O)O
Experiment: purified protein, by the assay type
Settings: other: C. crescentus EPSPS, 50 mM K+-HEPES pH 7.0, 1 mM shikimate-3-phosphate, varying [14C]PEP

Substance: Caulobacter crescentus EPSPS, native, SEQ ID NO: 9 (Caulobacter vibrioides CB15)
- Km: 2.0 µM

Reference: patent US20090209427A1, “Microbial glyphosate resistant epsps” (priority 2004, published 2009)
